Measurements: US20200181261A1 (Bayer, published 2020)
Numbering of substitutions follows the chain as printed. Values joined by “and” are separate entries in the source; they are usually repeats but may differ in a detail not shown here. Equal values may be shown once.

B1: TPP-3310 (antibody, human IgG2, kappa)
heavy: QVTLRESGPALVKPTQTLTLTCTFSGFSLSTYGIGVGWIRQPPGKALEWLAHIWWNDNKYYSTSLKTRLTISKDTSKNQVVLTMTNMDPVDTATYYCARISLPYFDYWGQGTTLTVSSASTKGPSVFPLAPCSRSTSESTAALGCLVKDYFPEPVTVSWNSGALTSGVHTFPAVLQSSGLYSLSSVVTVPSSNFGTQTYTCNVDHKPSNTKVDKTVERKCCVECPPCPAPPVAGPSVFLFPPKPKDTLMISRTPEVTCVVVDVSHEDPEVQFNWYVDGVEVHNAKTKPREEQFNSTFRVVSVLTVVHQDWLNGKEYKCKVSNKGLPAPIEKTISKTKGQPREPQVYTLPPSREEMTKNQVSLTCLVKGFYPSDIAVEWESNGQPENNYKTTPPMLDSDGSFFLYSKLTVDKSRWQQGNVFSCSVMHEALHNHYTQKSLSLSPG
light: DIQLTQSPSFLSASVGDRVTITCKASQNVGTAVAWYQQKPGKAPKLLIYSASNRYTGVPSRFSGSGSGTEFTLTISSLQPEDFATYYCQQYSSYPLTFGGGTKVEIKRTVAAPSVFIFPPSDEQLKSGTASVVCLLNNFYPREAKVQWKVDNALQSGNSQESVTEQDSKDSTYSLSSTLTLSKADYEKHKVYACEVTHQGLSSPVTKSFNRGEC
notes: humanized from TPP-2971, human IgG2; also called TPP-2971HU1-hIgG2Kappa
B2: TPP-3705 (antibody, human IgG2, kappa, V domains shown)
VH: EVQLVESGGGLVQPGGSLRLSCAASGFTFSLYQMHWVRQAPGKGLEWVSWISFSGGNTGYADSVKGRFTISRDNSKNTLYLQMNSLRAEDTAVYYCARATGYSSPWYLDPWGQGTLVTVSS
VL: DIQMTQSPSSLSASVGDRVTITCQASHEIDNYLNWYQQKPGKAPKLLIYDAYWLKTGVPSRFSGSGSGTDFTLTISSLQPEDIATYYCQGYDDLSVTFGGGTKVDIKR
notes: also called 090E-M007-A09-Mat1-hIgG2-hIgG2Kappa
B3: TPP-3707 (antibody, human IgG2, kappa, V domains shown)
VH: B2 VH
VL: B2 VL with L54S
notes: also called 090E-M007-A09-Mat2-hIgG2-hIgG2Kappa
B4: TPP-2971 (antibody, mouse IgG1, V domains shown)
VH: QVTLKESGPGILQPSQTLSLTCSFSGFSLSTYGIGVGWIRQPSGKDLEWLAHIWWNDNKYYNTALKSRLTISKDTSNNQVFLKIASVDTADTATYYCARISLPYFDYWGQGTTLTVSS
VL: DIVMTQSQKFMSTSVGDRVSITCKASQNVGTAVAWYQQKPGQSPKLLIYSASNRYTGVPDRFTGSGSGTDFTLTISNMQSEDLADYFCQQYSSYPLTFGAGTKLELK
notes: murine hybridoma antibody, mouse IgG1; also called 792.15H12C9
B5: TPP-3187 (antibody, mouse IgG1, V domains shown)
VH: B4 VH with S30T, D46G
VL: B4 VL with S92N, S93N
notes: murine hybridoma antibody, mouse IgG1; also called 792.15C4F4

How the values were obtained:
[1] = target: T1, human CEACAM6, full-length, on cells (human, UniProt P40199 35-320); test: cell-based or functional assay
T1 sequence: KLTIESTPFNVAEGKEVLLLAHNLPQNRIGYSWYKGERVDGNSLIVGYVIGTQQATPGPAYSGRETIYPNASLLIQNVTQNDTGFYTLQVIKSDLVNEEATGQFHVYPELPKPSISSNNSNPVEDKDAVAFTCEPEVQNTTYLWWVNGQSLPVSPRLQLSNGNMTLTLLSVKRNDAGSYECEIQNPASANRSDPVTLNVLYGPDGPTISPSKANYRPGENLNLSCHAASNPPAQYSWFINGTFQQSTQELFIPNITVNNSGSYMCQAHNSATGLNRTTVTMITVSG

[2] = target: T2, Human CEACAM6-Domain 1-His-I30L (I63L according to SEQ-ID NO: 179) (human); test: ELISA, domain 1 protein coated
T2 construct: the entry already carries the substitution; also called TPP-8697
T2 chain: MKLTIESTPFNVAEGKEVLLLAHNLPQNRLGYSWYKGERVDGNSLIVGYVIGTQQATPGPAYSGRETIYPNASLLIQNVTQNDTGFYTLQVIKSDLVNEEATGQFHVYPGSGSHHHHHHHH
Procedure: (§1) The proteins were expressed in E. coli, refolded and purified as described in Example 1. Comparative binding activity to domain 1 wild-type protein and the two single mutations was determined by ELISA method. 1.5 ug/ml protein solutions in PBS were coated overnight to 384 Nunc MaxiSorp plates (Sigma, P6491). Plates were washed with PBS/T and blocked with Smart block (CANDOR Bioscience GmbH, 113125). […] After washing with PBS/T, bound antibodies were detected with Anti Human IgG Fc POD (Sigma, A0170) and 10 μM Amplex Red solution (Thermo, A12222). Positive binding signals were detected via Fluorescence (Ex. 535 nm/Em. 590 nm).

[3] = target: T3, Human CEACAM6-Domain 1-His-I30F (I63F according to SEQ-ID NO: 179) (human); test: ELISA, domain 1 protein coated
T3 construct: the entry already carries the substitution; also called TPP-8698
T3 chain: T2 chain with L30F
Procedure: as §1

[4] = target: T4, human CEACAM1, extracellular (mature form), R&D Systems 2244-CM (human, UniProt P13688 35-428); test: ELISA, antibody captured, biotinylated antigen titrated; binding ELISA, biotinylated CEACAM1 titrated up to 2000 ng/ml; ambiguous fit
T4 construct: used biotinylated in some assays; also called TPP-1437; hC1
T4 sequence: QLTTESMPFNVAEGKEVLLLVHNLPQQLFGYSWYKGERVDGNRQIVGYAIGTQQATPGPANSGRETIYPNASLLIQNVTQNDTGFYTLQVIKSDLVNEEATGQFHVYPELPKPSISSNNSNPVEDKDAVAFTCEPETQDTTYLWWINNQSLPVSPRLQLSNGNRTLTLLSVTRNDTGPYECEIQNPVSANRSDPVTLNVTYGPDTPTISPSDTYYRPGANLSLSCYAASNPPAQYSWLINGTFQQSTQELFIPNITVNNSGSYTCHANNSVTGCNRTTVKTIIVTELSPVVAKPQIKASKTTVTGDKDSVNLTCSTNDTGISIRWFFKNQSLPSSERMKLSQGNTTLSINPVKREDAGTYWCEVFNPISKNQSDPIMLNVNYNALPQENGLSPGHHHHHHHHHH

[5] = target: T5, Macaca fascicularis CEACAM6-Domain 1, obtained by Factor Xa cleavage of TPP-2452 (Macaca fascicularis); test: SPR, antibody captured, antigen as analyte
T5 construct: also called APP-325; cynoC6-D1
T5 chain: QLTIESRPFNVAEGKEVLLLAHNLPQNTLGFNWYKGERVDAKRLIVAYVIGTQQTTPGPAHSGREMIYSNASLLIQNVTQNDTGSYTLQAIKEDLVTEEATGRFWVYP

Row | Binder | EC50 [4] [µg/mL] | Kd [5] [nM] | other results
1 | B1 | – | – | IC50 of the dose dependent effect on TIL mediated killing of HCC2935 cells (xCELLigence) [1]: 0.62 µg/mL and 0.21 µg/mL; binding result [2]: binds; binding result [3]: no binding
2 | B2 | > 2 | – | –
3 | B3 | > 2 | – | –
4 | B4 | – | 30 | –
5 | B5 | – | 42 | –
